Positions count from the first letter of the chain named.
What was measured:
[1] = biological target: T1, His-tagged FcγRIIIa (V158) (human, UniProt P08637 17-208); test: BLI (Octet QK384), His-tagged FcgRIIIa (V158) on anti-Penta-HIS tips, antibody 500 nM to 15.6 nM in solution, global 1:1 fit
T1 construct: not shown: His tag
Experimental: (§1) All measurements were performed at 25° C. with agitation at 1000 rpm. […] Sensograms were referenced for buffer effects and then fitted using the Octet QK384 user software (Pall ForteBio, USA). Kinetic responses were subjected to a global fitting using a one site binding model to obtain values for association (Kₒₙ), dissociation (Koff) rate constants and the equilibrium dissociation constant (KD). Only curves that could be reliably fitted with the software (R²>0.90) were included in the analysis.

His-tagged human HER3 [2] = biological target: T2, His-tagged human HER3 (human, UniProt P21860 20-643); test: BLI (Octet QK384), antibody on anti-human IgG capture tips, His-tagged human HER3 in solution, global 1:1 fit, R^2 = 0.9955, kon Error 5.62E+03; Response -0.0012 / 0.1507 / 0.3396 / 0.4384 at 35 / 69 / 139 / 278 nM
T2 construct: Antigen of the BLI experiments and of the HER2-Fc dimerisation ELISA; also called HER3 His; not shown: His tag
Experimental: as §1, with “The anti-HER3 antibody clones in IgG1 format were analysed for binding affinity to human HER3. Bio-Layer Interferometry (BLI) experiments were performed using the Octet QK384 system (ForteBio). anti-Human IgG Capture (AHC) Octet sensor tips (Pall ForteBio, USA) were used to anti-HER3 antibodies (25 nM). All” for “All”

His-tagged human HER3 [3] = biological target: T2, His-tagged human HER3; test: BLI (Octet QK384), antibody on anti-human IgG capture tips, His-tagged human HER3 in solution, global one-site fit
Outline: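 Anti-HER3 IgG1 antibodies (25 nM) captured on anti-human IgG tips; binding measured by BLI at 25 °C with 1000 rpm agitation.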

His-tagged human HER3 [4] = biological target: T2, His-tagged human HER3; test: BLI (Octet QK384), antibody on anti-human IgG capture tips, His-tagged human HER3 35-278 nM, global 1:1 fit
Experimental: as §1, with “The anti-HER3 antibody clones in IgG1 format were analysed for binding affinity to human HER3. Bio-Layer Interferometry (BLI) experiments were performed using the Octet QK384 system (ForteBio). anti-Human IgG Capture (AHC) Octet sensor tips (Pall ForteBio, USA) were used to anti-HER3 antibodies (25 nM). All” for “All”

His-tagged human HER3 [5] = biological target: T2, His-tagged human HER3; test: BLI (Octet QK384), antibody on anti-human IgG capture tips, His-tagged human HER3 in solution, global 1:1 fit, R^2 = 0.9957, kon Error 3.75E+03; Response 0.0006 / 0.0697 / 0.1929 / 0.3524 at 35 / 69 / 139 / 278 nM
Experimental: as §1, with “The anti-HER3 antibody clones in IgG1 format were analysed for binding affinity to human HER3. Bio-Layer Interferometry (BLI) experiments were performed using the Octet QK384 system (ForteBio). anti-Human IgG Capture (AHC) Octet sensor tips (Pall ForteBio, USA) were used to anti-HER3 antibodies (25 nM). All” for “All”

His-tagged human HER3 [6] = biological target: T2, His-tagged human HER3; test: BLI (Octet QK384), antibody on anti-human IgG capture tips, His-tagged human HER3 35-278 nM, global 1:1 fit; kdis Error 1.27E-04
Experimental: as §1, with “The anti-HER3 antibody clones in IgG1 format were analysed for binding affinity to human HER3. Bio-Layer Interferometry (BLI) experiments were performed using the Octet QK384 system (ForteBio). anti-Human IgG Capture (AHC) Octet sensor tips (Pall ForteBio, USA) were used to anti-HER3 antibodies (25 nM). All” for “All”

His-tagged human HER3 [7] = biological target: T2, His-tagged human HER3; test: BLI (Octet QK384), antibody on anti-human IgG capture tips, His-tagged human HER3 35-278 nM, global 1:1 fit; kdis Error 1.17E-04
Experimental: as §1, with “The anti-HER3 antibody clones in IgG1 format were analysed for binding affinity to human HER3. Bio-Layer Interferometry (BLI) experiments were performed using the Octet QK384 system (ForteBio). anti-Human IgG Capture (AHC) Octet sensor tips (Pall ForteBio, USA) were used to anti-HER3 antibodies (25 nM). All” for “All”

His-tagged human HER3 [8] = biological target: T2, His-tagged human HER3; test: BLI (Octet QK384), antibody on anti-human IgG capture tips, His-tagged human HER3 in solution, global 1:1 fit, R^2 = 0.9949, kon Error 6.34E+03; Response 0.0096 / 0.1318 / 0.3036 / 0.3995 at 35 / 69 / 139 / 278 nM
Experimental: as §1, with “The anti-HER3 antibody clones in IgG1 format were analysed for binding affinity to human HER3. Bio-Layer Interferometry (BLI) experiments were performed using the Octet QK384 system (ForteBio). anti-Human IgG Capture (AHC) Octet sensor tips (Pall ForteBio, USA) were used to anti-HER3 antibodies (25 nM). All” for “All”

[9] = biological target: T3, human HER3 expressed on cells (HEK293 HER3 O/E cells) (human, UniProt P21860 20-1342); test: flow cytometry, HEK293 cells overexpressing human HER3, 20 ug/ml antibody, FITC anti-Fc secondary; same antibody on WT HEK293: 1.91
T3 construct: Also used here for HER3 on U2OS cells of the PathHunter kit and on cancer cell lines; also called HEK293 cells transfected with vector encoding human HER3; human HER3-expressing cells

[10] = biological target: T3, human HER3 expressed on cells (HEK293 …); test: flow cytometry, HEK293 cells overexpressing human HER3, 20 ug/ml antibody, FITC anti-Fc secondary; same antibody on WT HEK293: 8.15
[11] = biological target: T3, human HER3 expressed on cells (HEK293 …); test: flow cytometry on HEK293T HER3 O/E cells, 10 ug antibody as printed, FITC-conjugated anti-Fc secondary
Experimental: The cells were washed with buffer (PBS with 2 mM EDTA and 0.5% BSA) and resuspended in FITC-conjugated anti-FC antibody (Invitrogen, USA) at 10 μg/ml for 20 min at 4° C. Cells were washed again and resuspended in 200 μL of FACS flow buffer (PBS with 5 mM EDTA) for flow cytometric analysis using MACSQuant 10 (Miltenyi Biotec, Germany). Unstained WT and transfected HEK293 cells were included in the analysis as negative controls. After acquisition, all raw data were analyzed using Flowlogic software. Cells were gated using forward and side scatter profile percentage of positive cells was determined for native and overexpressing cell populations.

His-tagged human HER3 [12] = biological target: T2, His-tagged human HER3; test: BLI (Octet QK384), antibody captured on AHC sensors, His-tagged human HER3 in solution, without NRG1

B1: 10D1 comprising GASDALIE and LCKC substitutions in CH2 region (antibody, human IgG1, kappa)
heavy: DVQLQESGPDLVKPSQSLSLTCTVTGYSITSGYSWHWIRQFPGNKLEWMGSIHYSGGTNYNPSLKSRISITRDTSKNQFFLQLNSVTTEDTATYFCARMTTAPRYPFDYWGQGTTLTVSSASTKGPSVFPLAPSSKSTSGGTAALGCLVKDYFPEPVTVSWNSGALTSGVHTFPAVLQSSGLYSLSSVVTVPSSSLGTQTYICNVNHKPSNTKVDKKVEPKSCDKTHTCPPCPAPELLAGPDVFCFPPKPKDTLMISRTPEVTCVVVDVSHEDPEVKFNWYVDGVEVHNAKTKPREEQYNSTYRVVSVLTVLHQDWLNGKEYKCKVSNKALPLPEECTISKAKGQPREPQVYTLPPSRDELTKNQVSLTCLVKGFYPSDIAVEWESNGQPENNYKTTPPVLDSDGSFFLYSKLTVDKSRWQQGNVFSCSVMHEALHNHYTQKSLSLSPGK
light: DIVMTQSQKFMSTSVGDRVSVTCKASQIVGSNVAWYQQKPGQSPKPLIYSASYRYSGVPDRFTASGSGTDFTLTITNVQSEDLAEYFCQQYSSHPLTFGAGTKLELKRTVAAPSVFIFPPSDEQLKSGTASVVCLLNNFYPREAKVQWKVDNALQSGNSQESVTEQDSKDSTYSLSSTLTLSKADYEKHKVYACEVTHQGLSSPVTKSFNRGEC
notes: also called Fc engineered 10D1 variant
[1]
  Kd: 34 nM

B2: anti-HER3 clone 10D1_c75 IgG1 (antibody, V domains shown)
VH: DVQLQEWGAGLLKPSETLSLTCAVTGYSITSGYSWHWIRQFPGNGLEWIGSIHYSGGTNYNPTLKSRITISRDTSKNQFSLKLSSVTAADTAVYFCARMTTAPRYPFDYWGQGTLVTVSS
VL: DIVMTQSPSSLSASVGDLVTITCKASQIVGSNVAWYQMKPGKSPKPLIYSASYLYFGVPSRFSGSGSGTDFTLTISSLQPEDVAEYFCQQYSSHPLTFGPGTKVEIKR
notes: Humanised 10D1 variant, IgG1/kappa
His-tagged human HER3 [2]
  kon: 163000 M⁻¹ s⁻¹
His-tagged human HER3 [3]
  Kd: < 0.001 nM
His-tagged human HER3 [4]
  koff: < 1e-07 s⁻¹

B3: anti-HER3 clone 10D1_c85o1 IgG1 (antibody, V domains shown)
VH: B2 VH with N44K, H53R, T63S, S84G, M99E
VL: B2 VL with L18R, M38Q, S52R, L54Q, F56S, S60F, E85T, F87Y
notes: Humanised 10D1 variant, IgG1/kappa; also called 10D1_c8501
His-tagged human HER3 [5]
  kon: 93600 M⁻¹ s⁻¹
His-tagged human HER3 [3]
  Kd: 18.2 nM
His-tagged human HER3 [6]
  koff: 0.0017 s⁻¹

B4: anti-HER3 clone 10D1_c77 IgG1 (antibody, V domains shown)
VH: B2 VH with T63S
VL: B2 VL with D1V, L18R, S31P, M38Q, L54G, F56S, G57D, S93T
notes: as for B2
His-tagged human HER3 [7]
  koff: 0.000346 s⁻¹
His-tagged human HER3 [3]
  Kd: 1.93 nM
His-tagged human HER3 [8]
  kon: 179000 M⁻¹ s⁻¹

B5: LJM716 (antibody, V domains shown)
VH: EVQLLESGGGLVQPGGSLRLSCAASGFTFSSYAMSWVRQAPGKGLEWVSAINSQGKSTYYADSVKGRFTISRDNSKNTLYLQMNSLRAEDTAVYYCARWGDEGFDIWGQGTLVTVSS
VL: DIQMTQSPSSLSASVGDRVTITCRASQGISNWLAWYQQKPGKAPKLLIYGASSLQSGVPSRFSGSGSGTDFTLTISSLQPEDFATYYCQQYSSFPTTFGQGTKVEIK
[9]
  % Parent (HER3 positive): 99.5%
[10]
  % Parent (HE3 positive): 98.7%
[11]
  % Parent (HER3 positive): 74.4%
His-tagged human HER3 [12]
  Kd: < 1 pM
  koff: < 1e-07 s⁻¹
  kon: 79800 M⁻¹ s⁻¹

From US20250122303A1 (HUMMINGBIRD BIOSCIENCE PTE, published 2025)
